Data reported in US20090239794A1, “HCV F PROTEIN AND USES THEREOF” (priority 2004, published 2009).

Biological target: T1, HLA-A*0201 (Homo sapiens, UniProt P04439, D140Y/D185E/D98H/E176V/E277Q/G131W/G231S/I119V/I121R/I166T/I218V/L300P/L318F/N151K/N90K/P208A/P217A/Q86G/Q94H/R138H/R169H/T345S)
T1 construct: rescue cell-surface expression of CMH-I molecule HLA-A2 in the TAP peptide transporter-deficient cell line T2; endogenous in cells; host or cells: T2 cells (TAP-deficient)
Experiment: T2 peptide binding assay
Assay type: cell-based
Conditions: for dose-response of MHC class I (HLA-A2) expression at the surface of T2 cells: 30, 100, 200 μg/ml; for A2 binding / Peak fluorescence, % of the levels obtained with NS3 1406-1415 / initial screening of the overlapping peptide panel for HLA-A*0201 expression at the cell surface: T2 cells; for A2 binding: dose-dependent increase of HLA-A2 surface expression; for Peak fluorescence, % of the levels obtained with NS3 1406-1415: MHC class I staining with W6/32; for initial screening of the overlapping peptide panel for HLA-A*0201 expression at the cell surface: 200 μg/ml
Experimental: 37 overlapping peptides (15 amino acid residues with […]) derived from F protein and 5 additional 15-mer peptides corresponding to alternative N-terminal frameshift products of the core protein sequence were synthesized using Fmoc chemistry (SynPep, Dublin, Calif.) based on the sequence of HCV-1a F protein (GenBank accession n° M62321), and were resolubilized in 25% w/v dimethyl sulfoxyde (DMSO) in 1×HBSS. Peptides were diluted to 30, 100, and 200 μg/ml final concentration in DMEM supplemented with 3% w/v FBS, and were incubated with 100,000 serum-depleted (3% FBS for 24 h) T2 cells for 16 h at 37° C. in 5% CO2. T2 cells were then stained (30 min at room temperature) for MHC class I molecules using fluorescein isothiocyanate (FITC)-conjugated W6/32 monoclonal antibody (Sigma, Saint Louis, Mo.) and were analyzed on a FACSCalibur™ flow cytometer (Becton-Dickinson Immunocytometry Systems, La Jolla, Calif.) with live gating based on forward and side scatter.
Interaction of antigenic peptides with class I major histocompatibility complex (MHC) molecules is a prerequisite for their recognition by host cytotoxic T lymphocytes (CTL). The T2 binding assay was therefore performed, in which exogenously-supplied peptides are assessed for their ability to rescue cell-surface expression of CMH-I molecule HLA-A2 in the TAP peptide transporter-deficient cell line T2 [25].
Forty-two overlapping 15-mer peptides corresponding to HCV-1a F protein sequence were tested for interaction with HLA-A*0201 molecules using the T2 peptide binding assay. Specifically, thirty-seven overlapping peptides (15 amino acid residues with 11 residues overlaps) derived from F protein and 5 additional 15-mer peptides corresponding to alternative N-terminal frameshift products of the core protein sequence were synthesized using Fmoc chemistry based on the sequence of HCV-1a ARFP (GenBank accession n° M62321), and peptide binding was assessed as described in Example 1. […] Mean fluorescence intensity following class I MHC staining by the W6/32 monoclonal antibody was used as the readout. The threshold level was set using no peptide controls (hatched lines in FIGS. 4 and 5).

AGAPQTPGV (Hepatitis C virus) [F107-115]
dose-response of MHC class I (HLA-A2) expression at the surface of T2 cells: dose-dependent capacity to rescue A2 expression
A2 binding: +

ALGLAGAPQT (Hepatitis C virus) [F103-112]
dose-response of MHC class I (HLA-A2) expression at the surface of T2 cells: unable to rescue HLA-A2 expression

CCRAGALDWVCARRE (Hepatitis C virus) [F37-51]
dose-response of MHC class I (HLA-A2) expression at the surface of T2 cells: dose-dependent increase
Peak fluorescence, % of the levels obtained with NS3 1406-1415: 79.2%
initial screening of the overlapping peptide panel for HLA-A*0201 expression at the cell surface: high binders
A2 binding: +

KLVALGINAV [NS3 1406, reference compound]
A2 binding: +

PVALGLAGAPQTPGV (Hepatitis C virus) [F101-115]
dose-response of MHC class I (HLA-A2) expression at the surface of T2 cells: dose-dependent increase
Peak fluorescence, % of the levels obtained with NS3 1406-1415: 83.2%
initial screening of the overlapping peptide panel for HLA-A*0201 expression at the cell surface: high binders
A2 binding: +

SLVEFTCCRA (Hepatitis C virus) [F31-40]
dose-response of MHC class I (HLA-A2) expression at the surface of T2 cells: dose-dependent increase
A2 binding: +

VRSLVEFTCCRAGAL (Hepatitis C virus) [F29-43, 15-mer of HCV-1a F protein]
dose-response of MHC class I (HLA-A2) expression at the surface of T2 cells: dose-dependent increase
Peak fluorescence, % of the levels obtained with NS3 1406-1415: 87.6%
initial screening of the overlapping peptide panel for HLA-A*0201 expression at the cell surface: high binders
A2 binding: +
